Test results from patent publication US20250163169.

Columns and labels:
[1] = tested on: 43-mer covering the stalk region of CD95L (residue 103 to residue 145)
43-mer covering the stalk region of CD95L (residue 103 to residue 145), sequence (chain, as listed by the source): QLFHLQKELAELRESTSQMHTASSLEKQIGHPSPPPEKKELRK

MMP3, sequence (chain, as listed by the source): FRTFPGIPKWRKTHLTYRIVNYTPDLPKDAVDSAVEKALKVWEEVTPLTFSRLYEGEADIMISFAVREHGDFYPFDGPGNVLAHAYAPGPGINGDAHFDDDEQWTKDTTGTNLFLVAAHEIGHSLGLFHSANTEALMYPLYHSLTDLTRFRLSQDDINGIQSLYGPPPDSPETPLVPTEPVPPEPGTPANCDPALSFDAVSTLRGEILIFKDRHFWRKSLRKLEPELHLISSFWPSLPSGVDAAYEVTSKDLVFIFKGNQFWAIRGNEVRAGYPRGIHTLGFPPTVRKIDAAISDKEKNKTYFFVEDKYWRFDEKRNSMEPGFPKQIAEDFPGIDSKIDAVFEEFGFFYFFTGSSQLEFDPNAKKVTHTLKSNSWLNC

## MMP3
Recombinant Ig-CD95L
Recombinant Ig-CD95L, sequence (chain, as listed by the source): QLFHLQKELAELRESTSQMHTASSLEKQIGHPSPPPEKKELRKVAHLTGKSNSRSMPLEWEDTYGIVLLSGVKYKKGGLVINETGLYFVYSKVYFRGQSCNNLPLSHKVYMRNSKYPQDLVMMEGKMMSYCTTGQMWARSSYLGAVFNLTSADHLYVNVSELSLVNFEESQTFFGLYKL
  cleavage of Ig-CD95L (western blotting): Using this Ig-CD95L, we showed that MMP2 and MMP3 can cleave CD95L
[1]
  percentage of degradation of the 43-mer (LC-MS/MS): more of 20% of cleavage
